30 sequences from the nanobody polyreactivity screen of Harvey et al. (2022) can be followed below.

The data set in a line: yeast display, Sf9 membrane polyspecificity reagent, FACS + sequencing; frameworks hold sequencing errors. An outline of the steps:
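Nanobodies from a synthetic yeast display library (Saccharomyces cerevisiae BJ5465), induced 36–48 hours with galactose, were stained 1 hour at 4 °C with 10% biotinylated, detergent-solubilized Sf9 membrane reagent, enriched on streptavidin microbeads, then FACS-sorted. Anti-HA (expression) and streptavidin (reagent binding) fluorescence set low and high (top ~1%) gates. Polyreactivity labels come from the gate of origin. Genes were colony-PCR amplified, MiSeq 2 × 250 sequenced and filtered by CDR length.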
Regarding “QVHLVESGGGLVQAGGSLRLSCAASGRTFYIYAMGWYRQAPGKERELVAGIRWSGDSTYYADSVKGRFTISRDNAKNTVYLQMNRLKPEDTAVYYCAADISYELLSYYWYYYWGQGSQVTVSS”, the “polyreactivity (PSR sort gate)” value is given as “high polyreactivity”. For “QVHLVESGGGLVQAGGSLRLSCAASGRTFYLYTMGWYRQAPGKEREFVAIISRSGASTRYADSVKGRFTISRDNAKNTVYLQMNSLKPEDTAVYYCAAYVGYPYDYWGQGTQVTVSS”, the “polyreactivity (PSR sort gate)” value is “high polyreactivity”. “QVHLVESGGGLVQAGGSLRLSCAASGRTFYYNAMGWYRQEPGKEREFVAAIRYSGSITYYADSVKGRFTISRDNAKNTVYLQMNSLKPEDTAVYYCAADYVSRRYYYWGQGTQVTVSS”: the “polyreactivity (PSR sort gate)” value was “high polyreactivity”. With “QVHLVESGGGLVQAGGSLRLSCAASGRTIQTYTMGWYRQAPGKERELVAVITTRGGRTYYADSVKGRFTISRDNAKNTVYLQMNILKPEDTGVYYCNKGITTRSVRSYDYWGQGTQVTVSS” the entry was “high polyreactivity”.

In the case of “QVHLVESGGGLVQAGGSLRLSCAASGSIFASNTMGWYRQAPGKERELVAGITKIGSSTYYADSVKGRFTISRDNAKNTVYLQMNSLKPEDTAVYYCNAYGPNIYSSRYDYWGQGTQVTVSS”, the “polyreactivity (PSR sort gate)” value is “low polyreactivity”.

On to “QVHLVESGGGLVQAGGSLRLSCAASGSIFAVNAMGWYRQAPGKERELVAVITSRGGSTYYADSVKGRFTISRDNAKNTVYLQMNSLKPEDTAVYYCAARPGAAGYKYYYWGQGTQVTVSS”, for which the “polyreactivity (PSR sort gate)” value was “high polyreactivity”. With “QVHLVESGGGLVQAGGSLRLSCAASGSIFFVNAMGWYRQAPGKERELVADISSGGSTNYADSVKGRFTISRDNAKNTVYLQMNSLKPEDTAVYYCNTDEPPIYERFPYDYWGQGTQVTVSS” the entry was “low polyreactivity”. The entry for “QVHLVESGGGLVQAGGSLRLSCAASGSIFGRYAMGWYRQAPGKEREFVAAISRGATNTYYADSVKGRFTISRDNAKNTVYLQMNSLKPEDTAVYYCARTQRYDYGYDYWGQGTQVTVSS” is “low polyreactivity”; for “QVHLVESGGGLVQAGGSLRLSCAASGSIFIYNAMGWYRQAPGKERELVAAISWSGDSTYYADSVKGRFTISRDNAKNTVYLQMNSLKPEDTAVYYCNAKPSRKWGRGTGKQYDYWGQGTQVTVSS” it is “high polyreactivity”; for “QVHLVESGGGLVQAGGSLRLSCAASGSIFKKNTLGWYRQAPGKERELVAVISSSGTRTYYADSVKGRFTISRDNAKNTVYLQMNSLKPEDTAVYYCARRAGGERDDYWGQGTQVTVSS” it is “high polyreactivity”.

As to “QVHLVESGGGLVQAGGSLRLSCAASGSIFKYNAMGWYRQSPGKERELVAAISSGGSTNYADSVKGRFTISRDNAKNTVYLQMNSLKPEDTAVYYCAKDRRRWYYTRDYWGQGTQVTVSS”, the “polyreactivity (PSR sort gate)” value was “low polyreactivity”. The entry for “QVHLVESGGGLVQAGGSLRLSCAASGSIFLAYAMGWYRQAPGKERELVAAISGGGSTYADSVKGRFTISRDNAKNTVYLQMNSLKPEDTAVYYCNADGRGDRFWSNFRFDYWGQGTQVTVSS” is “low polyreactivity”; for “QVHLVESGGGLVQAGGSLRLSCAASGSIFPYNVMGWYTQAPGTERELVAAISTRGGRTYYADSVKGRFTISRDNANNTVYLELNSLKPEDTAVYDCATAGGPYSDYGYYWGQGTQVTVSS” it is “high polyreactivity”. The entry for “QVHLVESGGGLVQAGGSLRLSCAASGSIFRGYAMGWSRQAPGKERELVAAITSGGSTNYADSVNGRFTISRDNANNTVYLQMNSLKPEDTAVYYCNTVRWGRRTTFYYWGQGTQVTVSS” is “low polyreactivity”; for “QVHLVESGGGLVQAGGSLRLSCAASGSIFRNNAMGWYRQAPGKARELVAVISRSGGSTYYADSVKGRFTISRDNAKNTVYLDMNSLKPEDTAVYYCDVGYWGRLGFRGYGYWGQGTQVTVSS” it is “low polyreactivity”; for “QVHLVESGGGLVQAGGSLRLSCAASGSIFSSYAMGWYRQATGKERELVASISSGGSTNYADSVKGRFTISRDNAKNTVYLQMNSLKPEDTAVYYCNVDLYNWRGDSTGYDYWGQGTQVTVSS” it is “low polyreactivity”.

For “QVHLVESGGGLVQAGGSLRLSCAASGSIFVQYAMGWYRQAPGKERELVAAITRDGDRTYYADSVKGRFTISRDNAKNTVYLQMNSLKPEDTAVYYCAARHSSIRSPQYDYWGQGTQVTVSS”, the “polyreactivity (PSR sort gate)” value is “high polyreactivity”. As to “QVHLVESGGGLVQAGGSLRLSCAASGSIFYYYGMGWYRQAPGIERELVAAISSGGRTYYADSVKGRFTISRDNAKNTVYLQMDSLKPEDTAVYYCAKPGSYAVYSGWHDYWGQGTQVTVSS”, the “polyreactivity (PSR sort gate)” value is listed as “high polyreactivity”. With “QVHLVESGGGLVQAGGSLRLSCAASGSIKQNAMGWYRQAPGKERELVAAIDWDGSSTYYADSVKGRFTISRDNAKNTVYLQMNSLKPEDTAVYYCNTDYTGPDGTDEYDYWGQGTQVTVSS” the entry was “low polyreactivity”; with “QVHLVESGGGLVQAGGSLRLSCAASGSILTDNAMGWYRQAPGKERELVAAITSSGNTNYADSVKGRFTISRDNAKNTVYLQMNSLKPEDTAVYYCAADSYYKHWTDWLPVGEDYWGQGTEVTVSS”, “low polyreactivity”. Turning to “QVHLVESGGGLVQAGGSLRLSCAASGSILYGNAMGWYRQAPGKERELVAAISYSGGRTYYADSVKGRFTISRDNAKNTVYLQMNSLKPEDTAVYYCAALHSGRVQNFDYWGQGTQVTVSS”, the “polyreactivity (PSR sort gate)” value was “high polyreactivity”.

As to “QVHLVESGGGLVQAGGSLRLSCAASGSIRVEYAMGWNRQAPGKERELVATITDSGNTNYADSVKGRFTISRDNAKNTVYLQMNSLKPEDTAVYYCAADAYPYYWLDQAFGYDYWGQGTQVTVSS”, the “polyreactivity (PSR sort gate)” value is “low polyreactivity”. Take “QVHLVESGGGLVQAGGSLRLSCAASGSIVFLYAMGWYRQAPGKEWELVAAISGRGTSTDYADSVKGRFTISRDNAKNTVYLQLTSLKPEDTAVYFCAAKYNRPYQGWRVNHWGQGTQVTVSS”: the “polyreactivity (PSR sort gate)” value was “high polyreactivity”. The entry for “QVHLVESGGGLVQAGGSLRLSCAASGSIYTRYAMGWYRQAPGKERDLVAAITVSGGSTYYADSVKGRFTISRDNAKNTVYLQMNSLKPEDTAVYYCARRAWSGPGYFKAIRRFDYWGQGTQVTVSS” is “low polyreactivity”. The entry for “QVHLVESGGGLVQAGGSLRLSCAASGSNCTYYAMGWYRQAPGKERELVAAIDFSGASTSYADSVKGRFTISRDNAKNTVYFQMNSLKPEDTAVYYCAAVLYWYPPYYYWGQGTQVTVSS” is “low polyreactivity”; for “QVHLVESGGGLVQAGGSLRLSCAASGSNFVGNAMGWYRQAPGKERELVATISNSGGRTYYADSVKGRFTISRDNAKNTVYLQMNSLKPEDTAVYYCAADHPAFGPGYSFDFWGQGTQVTVSS” it is “low polyreactivity”; for “QVHLVESGGGLVQAGGSLRLSCAASGSTFAIYAMVWYRQAPGKERELVAAIRQRAGSTYYADSVKGRFTISRDNAKNTVYLQMNSLKPEDTAVHYCATATRPISRGYWGQGTQVTVSS” it is “low polyreactivity”. With “QVHLVESGGGLVQAGGSLRLSCAASGSTFFIYTMGWYRQAPGKEREFVAAISWTGGRTYYADSVKGRFTISRDNAKNTVYLQMNSLKPEDTAVYYCAARYKYSSYDYWGEGTQVTVSS” the entry was “high polyreactivity”. For the sequence “QVHLVESGGGLVQAGGSLRLSCAASGSTFFYYAMGWYRQAPGKERELVAAISNSGGNTFYADSVKGRFTISRDNAKNTVYLQMNSLKPEDTAVYYCAADEIGHFQWRDGDYWGQGTQVTVSS”, the “polyreactivity (PSR sort gate)” value was “low polyreactivity”.

On to “QVHLVESGGGLVQAGGSLRLSCAASGSTFGRYTMGWYRQAPGKERELVAAITSGGGSTYYADSVKGRFTISRDNAKNTVYLQMNSLKPEDTAVYYCAARSLVQDHAYGYNYWGQGTQVTVSS”, for which the “polyreactivity (PSR sort gate)” value is reported as “low polyreactivity”.
